Measurements taken from the FLAb antibody collection.
Changes are numbered by the printed parent chain.

B1: unnamed (protein)
chain 1: QGQLVQSGAEVKKPGASVKVSCKASGYTFTDYEMHWVRQAPIHGLEWIGVIESETGGTAYNQKFKGRVTITADKSTSTAYMELSSLRSEDTAVYYCAREGITTVATTYYWYFDVWGQGTTVTVSS
chain 2: DVVMTQSPLSLPVTLGQPASISCRSSQSIVHSNGNTYLEWYLQKPGQSPQLLIYKVSNRFSGVPDRFSGSGSGTDFTLKISRVEAEDVGVYYCFQGSHVPLTFGQGTKLEIK
B2: unnamed (protein)
chain 1: QVKLQESGAELARPGASVKLSCKASGYTFTNYWMQWVKQRPGQGLDWIGAIYPGDGNTRYTHKFKGKATLTADKSSSTAYMQLSSLASEDSGVYYCARGEGNYAWFAYWGQGTTVTVSS
chain 2: DIELTQSPASLSASVGETVTITCQASENIYSYLAWHQQKQGKSPQLLVYNAKTLAGGVSSRFSGSGSGTHFSLKIKSLQPEDFGIYYCQHHYGILPTFGGGTKLEIK
B3: unnamed (protein)
chain 1: QVQLQQSGAEVKKPGSSVRVSCKASGGTFNNNAINWVRQAPGQGLEWMGGIIPMFGTAKYSQNFQGRVAITADESTGTASMELSSLRSEDTAVYYCARSRDLLLFPHHALSPWGRGTMVTVSS
chain 2: SSELTQDPAVSVALGQTVRVTCQGDSLRSYYASWYQQKPGQAPVLVIYGKNNRPSGIPDRFSGSSSGNTASLTITGAQAEDEADYYCSSRDSSGNHWVFGGGTELTVL
B4: unnamed (protein)
chain 1: EVQMVQSGAEVKKPGEPLKISCKGSGYKFGTHWIGWVRQRPGKGLEWMGIIHPADSETKYSPSFQGQVSFSADKSSNTAYLHWSTLRASDTAMYYCARRSGSSSWYALDFWGQGTMVTVSS
chain 2: QSVLTQSPSASGTPGQRVTISCSGGSSNIGSNTVNWYQQFPGAAPKLLIYTNNQRPSGVPDRFSGSKSGTSASLAISGLQSEDEADYYCATWDDSLNGLYVFGTGTKVTVL
B5: unnamed (protein)
chain 1: QAYLQQSGAELVRPGASVKMSCKASGYTFTSYNMHWVKQTPRQGLEWIGAIYPGNGDTSYNQKFKGKATLTVDKSSSTAYMQLSSLTSEDSAVYFCARVVYYSNSYWYFDVWGTGTTVTVSG
chain 2: QIVLSQSPAILSASPGEKVTMTCRASSSVSYMHWYQQKPGSSPKPWIYAPSNLASGVPARFSGSGSGTSYSLTISRVEAEDAATYYCQQWSFNPPTFGAGTKLELK
B6: unnamed (protein)
chain 1: QVQLVESGGGLVKPGGSLRLSCAASGFTFSDYYMNWIRQAPGKGLEWVSYISSSGSIIYYADSVKGRFTISRDNAKNSLYLQMNSLRAEDTAVYYCAREGRIAARGMDVWGQGTTVTVSS
chain 2: DIQMTQSPSSLSASVGDRVSITCRPSQSFSRYINWYQQKPGKAPKLLIHAASSLVGGVPSRFSGSGSGTDFTLTISSLQPEDFATYYCQQTYSNPPITFGQGTRLEMK
B7: unnamed (protein)
chain 1: QVQLVQSGAEVKKPGASVKVSCKASGYTFTNYGLSWVRQAPGQGLEWMGWISANNGDTNYGQEFQGRVTMTTDTSTSTAYMELRSLRSDDTAVYYCARDSSSSWARWFFDLWGRGTLVTVSS
chain 2: SYVLTQPPSVSVAPGKTARITCGGNIIGSKLVHWYQQKPGQAPVLVIYDDGDRPSGIPERFSGSNSGNTATLTISRVEAGDEADYYCQVWDTGSDPVVFGGGTKLTVL
B8: unnamed (protein)
chain 1: QAYLQQSGAELVRPGASVKMSCKASGYTFTSYNMHWVKQTPRQGLEWIGGIYPGNGDTSYNQKFKGKATLTVGKSSSTAYMQLSSLTSEDSAVYFCARYDYNYAMDYWGQGTSVTVSS
chain 2: B5 chain 2 with P50T, L72F, S91T, A99G, K102R, L105I
B9: unnamed (protein)
chain 1: EVQLVQSGAEVKKPGESLKISCKGSGYSFTTYWLGWVRQMPGKGLDWIGIMSPVDSDIRYSPSFQGQVTMSVDKSITTAYLQWNSLKASDTAMYYCARRRPGQGYFDFWGQGTLVTVSS
chain 2: DIQMTQSPSSLSASVGDRVTITCRASQGISSWLAWYQQKPEKAPKSLIYAASSLQSGVPSRFSGSGSGTDFTLTISSLQPEDFATYYCQQYNIYPYTFGQGTKLEIK
B10: unnamed (protein)
chain 1: EVQLVQSGAEVKKPGESLRISCKGSGYSFSTYWISWVRQMPGKGLEWMGKIYPGDSYTNYSPSFQGQVTISADKSISTAYLQWSSLKASDTAMYYCARGYGIFDYWGQGTLVTVSS
chain 2: SYELTQPPSVSVSPGQTASITCSGDNIGDQYAHWYQQKPGQSPVLVIYQDKNRPSGIPERFSGSNSGNTATLTISGTQAMDEADYYCATYTGFGSLAVFGGGTKLTVL
B11: unnamed (protein)
chain 1: QVQLVESGGGVVQPGRSLRLSCAASGFTFSSYDMHWVRQAPGKGLEWVAVIWYDGSNKYYADSVKGRFTISRDNSKNTLYLQMNSLRAEDTAVYYCARGSGNWGFFDYWGQGTLVTVSS
chain 2: B9 chain 2 with S31R, I93T, Y96R, L104V
B12: unnamed (protein)
chain 1: EVQLVQSGAEVKKPGASVKVSCKASGYTFTSYVIHWVRQRPGQGLAWMGYINPYNDGTKYNERFKGKVTITSDRSTSTVYMELSSLRSEDTAVYLCGREGIRYYGLLGDYWGQGTLVTVSS
chain 2: DIQMTQSPSSLSASVGDRVTITCGTSEDIINYLNWYQQKPGKAPKLLIYHTSRLQSGVPSRFSGSGSGTDFTLTISSLQPEDFATYYCQQGYTLPYTFGQGTKVEIK
B13: unnamed (protein)
chain 1: QVQLQESGPGLVKPSETLSLTCTVSGFSLTNYGIHWIRQPPGKGLEWLGVIWARGFTNYNSALMSRLTISKDNSKNQVSLKLSSVTAADTAVYYCARANDGVYYAMDYWGQGTLVTVSS
chain 2: DFVMTQSPAFLSVTPGEKVTITCSAQSSVNYIHWYQQKPDQAPKKLIYDTSKLASGVPSRFSGSGSGTDYTFTISSLEAEDAATYYCQQWTTNPLTFGQGTKVEIK
B14: unnamed (protein)
chain 1: QVQLVQSGAEVKKPGASVKVSCKGSGYTFTSYWMHWVRQAPGQRLEWIGEIDPSESNTNYNQKFKGRVTLTVDISASTAYMELSSLRSEDTAVYYCARGGYDGWDYAIDYWGQGTLVTVSS
chain 2: DVVMTQSPLSLPVTPGEPASISCRSSQSLAKSYGNTYLSWYLQKPGQSPQLLIYGISNRFSGVPDRFSGSGSGTDFTLKISRVEAEDVGVYYCLQGTHQPYTFGQGTKVEIK
B15: unnamed (protein)
chain 1: QVQLQQSGAEVKKPGSSVKVSCKASGYTFTSYNMHWVKQAPGQGLEWIGAIYPGMGDTSYNQKFKGKATLTADESTNTAYMELSSLRSEDTAFYYCARSTYYGGDWYFDVWGQGTTVTVSS
chain 2: DIQLTQSPSSLSASVGDRVTMTCRASSSVSYIHWFQQKPGKAPKPWIYATSNLASGVPVRFSGSGSGTDYTFTISSLQPEDIATYYCQQWTSNPPTFGGGTKLEIK
B16: unnamed (protein)
chain 1: QVELVESGGGLVQPGGSLRLSCAASGFTFTSYWMSWVRQAPGKGLELVSSITSYGSFTYYADSVKGRFTISRDNSKNTLYLQMNSLRAEDTAVYYCARNMYTHFDSWGQGTLVTVSS
chain 2: DIVLTQPPSVSGAPGQRVTISCSGSSSNIGSNSVSWYQQLPGTAPKLLIYDNSKRPSGVPDRFSGSKSGTSASLAITGLQSEDEADYYCQSRDTYGYYWVFGGGTKLTVL
B17: unnamed (protein)
chain 1: QVQLVESGGGVVQPGRSLRLSCAASGFTFSTYGMHWVRQAPGKGLEWVAVIWDDGSYKYYGDSVKGRFTISRDNSKNTLYLQMNSLRAEDTAVYYCARDGITMVRGVMKDYFDYWGQGTLVTVSS
chain 2: AIQLTQSPSSLSASVGDRVTITCRASQDISSALVWYQQKPGKAPKLLIYDASSLESGVPSRFSGSESGTDFTLTISSLQPEDFATYYCQQFNSYPLTFGGGTKVEIK
B18: unnamed (protein)
chain 1: QVQLQQPGAELVRPGASVKLSCKASGYTFTSYWINWVKQRPGQGLEWIGNIYPSDSYTNYNQKFKDKATLTVDKSSSTAYMQLSSPTSEDSAVYYCTRSWRGNSFDYWGQGTTLTVSS
chain 2: DIVMTQSPSSLTVTAGEKVTMSCKSSQSLLNSGNQKNYLTWYQQKPGQPPKLLIYWASTRESGVPDRFTGSGSGTDFTLTISSVQAEDLAVYYCQNDYSYPFTFGSGTKLEIK
B19: unnamed (protein)
chain 1: EVQLQQSGPELVKPGASVKMSCKASGYTFTSYVVHWVKQNPGQGLEWIGYINPFNDGTKYNENFKGKATLTSDRSSSTAYMELSSLTSEESAVYFCARDMGREGFAYWGQGTLVTVSA
chain 2: DIVMTQAAFSNPVTLGTSASISCRSSKSLLHSNGITYLYWYLQKPGQSPQLLIYQMSNLASGVPDRFSSSGSGTDFTLRISRVEAEDVGVYYCAQNLELPRTFGGGTKLEI

Assay: patients with anti-drug antibodies; higher = more immunogenic

| Protein | patients with anti-drug antibodies [%] |
| --- | --- |
| B1 | 1 |
| B2 | 68.1 |
| B3 | 2.4 |
| B4 | 2.1 |
| B5 | 45.5 |
| B6 | 2.9 |
| B7 | 0.5 |
| B8 | 0 |
| B9 | 4 |
| B10 | 40.7 |
| B11 | 0 |
| B12 | 13 |
| B13 | 2.6 |
| B14 | 9.5 |
| B15 | 19.5 |
| B16 | 2.3 |
| B17 | 0 |
| B18 | 0 |
| B19 | 100 |
